# Laboratory results as given in patent US20090208453A1 (NURON BIOTECH, published 2009).
# T1: recombinant human interferon-alpha/beta R2 receptor Fc chimera (R&D Systems, Product 4015-AB) (human, UniProt P48551 27-243)
# T1 construct: Bought reagent, coated onto ELISA plates; also called rhIFN-R2 Fc; Fc part of the bought chimera not given
# T1 sequence (looked up): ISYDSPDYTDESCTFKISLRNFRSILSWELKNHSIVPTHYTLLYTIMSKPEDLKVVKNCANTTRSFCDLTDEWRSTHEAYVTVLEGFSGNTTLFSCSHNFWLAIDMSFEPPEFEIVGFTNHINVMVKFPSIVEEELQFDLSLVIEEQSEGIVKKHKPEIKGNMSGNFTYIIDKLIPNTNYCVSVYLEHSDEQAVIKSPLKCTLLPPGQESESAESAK
# B1: Bar 25 protein (recombinant human interferon beta-1b, C17S IFN-beta-1b, refolded under high pressure) (ligand)
# chain: SYNLLGFLQRSSNFQSQKLLWQLNGRLEYCLKDRMNFDIPEEIKQLQQFQKEDAALTIYEMLQNIFAIFRQDSSSTGWNETIVENLLANVYHQINHLKTVLEEKLEKEDFTRGKLMSSLHLKRYYGRILHYLKAKEYSHCAWTIVRVEILRNFYFINRLTGYLRN
# notes: Non-glycosylated, expressed in E. coli; It was tested untreated and after RP-HPLC/SEC-HPLC isolation; The research-grade material was partially deamidated; also called rhIFN beta-1b; rhIFN-beta1b
# Target: T1, recombinant human interferon-alpha/beta …
# Assay: Receptor binding (competition): displacement of 125I-IFN-alpha from plate-coated rhIFN-R2 Fc; untreated and RP-HPLC-purified samples
# Experimental: Receptor binding competition assays were performed using purified rhIFN-beta1b from Bar 25 protein and BETASERON, and unprocessed Bar 25 protein and BETASERON. The assay was performed using the recombinant human interferon-alpha/beta R2 receptor Fc (rhIFN-R2 Fc) chimera (R&D Systems, Product 4015-AB). This receptor binds both interferon-alpha and interferon-beta. ¹²⁵I-human interferon-alpha (¹²⁵I-IFN-alpha) was used as the competing reagent to avoid potential effects of radiolabeling on the rhIFN-beta1b products. rhIFN-R2 Fc was coated onto ELISA plates and ¹²⁵I-IFN-alpha was added at a fixed concentration to each well. […] Unlabeled IFN-alpha was used as a control. The amount of ¹²⁵I-IFN-alpha remaining bound to rhIFN-R2 Fc after the competition was measured and plotted as a function of the rhIFN-beta1b concentration. The resulting curves for each product and purified rhIFN-beta1b sample were compared.
binder,measurement,value
B1,binding result,binds
